Assay results: article PMC12167710 (Nature Biotechnology, 2024)
Numbering of substitutions follows the chain as printed.

B1: mRBD2 (antibody, V domains shown)
VH: QVQLQQSGAELARPGASVKLSCKASGYTFISNGISWVKQRTGQGLEWIGEIYPRNGNTYYNEKFKGKATLTADKSSSTAYMELRSLTSEDSAVFFCARDYYYGSFDYWGQGTTLTVSS
VL: DIQMTQSPSSLSASLGERVSLTCRASREISGYLTWLQQKPDGTIKRLIYAASTLDSGVPKRFSGSRSGSDYSLTISSLESEDFADYYCLQYASYPWTFGGGTKLEIK
B2: mRBD23 (antibody, V domains shown)
VH: QVQLQQPGAELVRPGSSVKLSCKASGYTFTSYWMHWVKQRPIQGLEWIGNIDPSDSETHYNQKFKDKATLTVDKSSSTAYMQLSSLTSEDSAVYYCTRPGSLRSRGWYFDVWGTGTTVTVSS
VL: DIVMTQAAPSVPVTPGESVSISCRSSKSLLHSNGNTYLYWFLQRPGQSPQLLIYRMSNLASGVPDRFSGSGSGTAFTLRISRVEAEDVGVYYCMQHLEYPYTFGGGTKLEIK
B3: mRBD4 (antibody, V domains shown)
VH: QVQLQQPGAELVMPGASVKLSCKASGYTFTSYWMHWVKQRPGQGLEWIGEIDPSDSYTNYNQKFKDKSTLTVDKSSSTAYMQLSSLTSEDSAVYYCARGGVYYYGSSHYFDYWGQGTTLTVSS
VL: B2 VL with L51F, Y101F, G105S
B4: mRBD3 (antibody, V domains shown)
VH: QVQLQQPGAELVMPGTSVKLSCKASGYIFTSYWMHWVKQRPGQGLEWIGEIDPSDNYTNYNQKFKGKSTLTVDKSSSTAYMQLSSLTSEDSAVYYCARGGLYYYGSSYDAMDYWGQGTSVTVSS
VL: B2 VL with V90A, Y101F, G105S
B5: mRBD16 (antibody, V domains shown)
VH: QIQLVQSGPELKKPGETVKISCKASGYTLTEYPMHWVKQAPGKGFKWMGMIYTDTGEPTYAEEFKGRFAFSLETSASTAYLQINNLKNEDTATYFCVRAGPSFAMDYWGQGTSVTVSS
VL: NIVLTQSPASLAVSLGQRATISCRASESVDSYGNSFMHWYQQKPGQPPKLLIYLASNLESGVPARFSGSGSRTDFTLTIDPVEADDAATYYCQQNNEDPYTFGGGTKLEIK
B6: mRBD22 (antibody, V domains shown)
VH: QIQLVQSGPELKKPGETVKISCKASGYTFTEYPMHWVKQAPGKGFKWMGMIYTDTGEPTYAEEFKGRFAFSLETSASTAYLQINNLKNEDTATYFCVRGGYYYFDYWGQGTTLTVSS
VL: B5 VL with Y100W
B7: mRBD11 (antibody, V domains shown)
VH: B1 VH with S104N
VL: B5 VL
B8: mRBD21 (antibody, V domains shown)
VH: B5 VH with L29F, E31K, F68C, A99W, P101G, F103Y, M105L
VL: B5 VL with N1D, L54R, V62I, D80N, A87V, N95S, Y100L, G104A, I110L
B9: mRBD19 (antibody, V domains shown)
VH: B5 VH with L29F, A99G, S102Y, F103Y
VL: B5 VL with Y100W
B10: mRBD20 (antibody, V domains shown)
VH: B5 VH with F103Y
VL: B5 VL with V13M, Q42L
B11: mRBD15 (antibody, V domains shown)
VH: B5 VH with E10D, L29F, K46Q, A92S, F103Y
VL: B5 VL with L58V, Q93H, N95I
B12: mRBD1 (antibody, V domains shown)
VH: QVQLQQPGAELVKPGASVKVSCKASGYTFTSYWMHWVKQRPGQGLEWIGRIHPSDSDTNYNQKFKGKATLTVDKSSNTAYMQLSSLTSEDSAVYYCAILDCYWYFDVWGTGTTVTVSS
VL: QIVLTQSPAIMSASPGEKVTMTCSASSSVSYMYWYQQKPGSSPRLLIYDTSNLASGVPVRFSGSGSGTSYSLTISRMEAEDAATYYCQQWSSYPLTFGAGTKLELK
B13: mRBD18 (antibody, V domains shown)
VH: QIQLVQSGPELKKPGETVKISCKASGYTFTDYPMHWVQQAPGKGFKWMGMIYTDTGEPTYAEEFKGRFAFSLETSASTAYLQINNLKNEDTATYFCVRWAGYFDYWGQGTTLTVSS
VL: DIVLTQSPASLAVSLGQRATISCRASESVDSYGNSFMDWYQQKPGQPPKLLIYRASNLESGIPARFSGSGSRTDFTLIINPVEADDVATYYCQQSNEHPLTFGAGTKLELK
B14: mRBD5 (antibody, V domains shown)
VH: QVQLQQPGAELVKPGASVKVSCKASGYTFTSYWMHWVKQRPGQGLEWIGRIHPSDSDTNYNQKFKGKATLTVDKSSSTAYMQLSSLTSEDSAVYYCAIDWDGDYWGQGTTLTVSS
VL: DIVMSQSPSSLAVSAGEKVTMSCKSSQSLLNSRTRKNYLAWYQQKPGQSPKLLIYWASTRESGVPDRFTGSGSGTDFTLTISSVQAEDLAVYYCKQSYNLWTFGGGTKLEIK
B15: mRBD6 (antibody, V domains shown)
VH: B14 VH with I98M, G102V
VL: B14 VL with W101L, G105A, I111L
B16: mRBD12 (antibody, V domains shown)
VH: QVQLQQSGAELARPGASVKLSCKASGYTFTSYGISWVKQRTGQGLEWIGEIYPRSGNTYYNEKFKGKATLTADKSSSTAYMEVRSLTSEDSAVYFCAREGGYGYVMDYWGQGTSVTVSS
VL: DIQMTQTTSSLSASLGDRVTISCRASQDISNYLNWYQQKPDGTVKLLIYYTSRLHSGVPSRFSGSGSGTDYSFTISNLEQEDIATYFCQQGNTLPWTFGGGTKLEIK
B17: mRBD10 (antibody, V domains shown)
VH: QVQLKQSGAELVRPGASVKLSCKASGYTFTDYYINWVKQRPGQGLEWIARIYPGSGNTYYNEKFKGKATLTAEKSSSTAYMQLSSLTSEDSAVYFCARDYGSSYVDYFDYWGQGTTLTVSS
VL: B16 VL with F73L, W96L, G100A, I106L
B18: mRBD17 (antibody, V domains shown)
VH: B5 VH
VL: B16 VL with F73L, I83F, W96Y
B19: mRBD25 (antibody, V domains shown)
VH: QVQLQQSGPELVKPGASVKISCKASGYAFSNSWMNWVKQRPGKGLEWIGRIYPGDGDTNYNGKFKGKATLTADKSSSTAYMQLSSLTSEDSAVYFCANYYGDYWGQGTTLTVSS
VL: QIVLTQSPALMSASPGEKVTMTCSASSSVSYMYWYQQKPRSSPKPWIYLTSNLASGVPARFSGSGSGTSYSLTISSMEAEDAATYYCQQWSSNPYTFGGGTKLEIK
B20: mRBD24 (antibody, V domains shown)
VH: EVQLQQSGPDLVKPGASVKISCKASGYTFTDYYMNWVKQSHGKSLEWIGDINPNNGGTYYNQKFKGKATLTVDKSSSTAYMELRSLTSEDSAVYYCARQLRRWGQGTLVTVSA
VL: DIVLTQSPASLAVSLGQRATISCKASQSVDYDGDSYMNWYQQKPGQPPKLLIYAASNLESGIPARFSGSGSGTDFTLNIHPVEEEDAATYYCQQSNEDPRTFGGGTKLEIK
B21: hRBD11 (antibody, V domains shown)
VH: QVQLQESGPGLVKPSQTLSLTCTVSGGSISSGGYYWSWIRQHPGKGLEWIGYIFYSGSTYYNPSLKSRVIISVDTSKNQFSLKLSSVTAADTAAYYCARVNRVYGSGSYSLDPWGQGTLVTVSS
VL: QSALTQPASVSGSPGQSITISCTGTSRDVGDYDYVSWYQQHPGKAPKLMIYEGSERPSGVSNRFSGSKSGNTASLTISGLQAEDEADYYCCSYTGSSTSFLFGTGTKVTVL
B22: hRBD16 (antibody, V domains shown)
VH: EVQLVESGGALIQPGGSLRLSCAASGFTVSSNYMYWVRQAPGKGLEWVSLIYPGGSTFYADSVKGRFTISRDNSENTLYLQMNSLRAEDTAVYYCARGPYGDSNWGQGTLVTVSS
VL: DIQMTQSPSSLSASVGDRVTITCQASQDIRNYLNWYQQKPGKAPKLLIYDASNLKTGVPSRFSGSGSGTDFTFTISSLQPEDIATYYCQQYDNLPITFGQGTRLEIK
B23: hRBD10 (antibody, V domains shown)
VH: EVQLVESGGGLVQPGGSLRLSCSASGFTFTTYNMNWVRQAPGKGLEWVSYISSSSSTIYYADSVEGRFTISRDNAKNSLYLQMNSLRDEDTAVYYCARGVGATSYYYHGMDVWGQGTTVSVSS
VL: DIQMTQSPSSLSASVGDRVTITCRASQSIYSYLNWYKQKAGKAPKLLIYAASSLQSGVPSRFSGSGSGTDFTLTIISLQPEDFATYYCQQSYSTPPTFGQGTKVEIK
B24: hRBD1 (antibody, V domains shown)
VH: QVQLVQSGSELKKPGASVKVSCKASGNTLTNHALNWVRQAPGQGLEWMGWINTNTGIPTYAQGFTGRFVFSLDTSVSTAYLQISSLKAEDTAVYYCARVGQTAIAALDDAFDIWGQGTMVTVSS
VL: not shown
B25: hRBD2 (antibody, V domains shown)
VH: B24 VH with N27Y, L29F, T30S, H32Y, L34I, I57H, T74A, S77T, Q101R
VL: not shown
B26: hRBD14 (antibody, V domains shown)
VH: EVQLVESGGGLVQPGGSLRLSCAASGFSFSSSDMHWVRQATGKGLEWVSGIGTSGDTYYLGSVKGRFTISRDDAKNSFYLQMNSLRAGDTAVYYCARGEMAATGLWYYFDYWGQGTLVTVSS
VL: not shown

molecular target: T1, receptor-binding domain (RBD) of the wild-type SARS-CoV-2 spike protein (SARS-CoV-2, UniProt P0DTC2 333-527); test: ELISA; conditions: both partners purified
T1 construct: also called SARS-CoV-2 RBD

| Binder | EC50 [nM] |
| --- | --- |
| B1 | 0.0896 |
| B2 | 0.304 |
| B3 | 0.202 |
| B4 | 0.102 |
| B5 | 0.0895 |
| B6 | 0.218 |
| B7 | 82.3 |
| B8 | 0.18 |
| B9 | 0.123 |
| B10 | 0.153 |
| B11 | 0.124 |
| B12 | 0.134 |
| B13 | 0.222 |
| B14 | 0.321 |
| B15 | 0.393 |
| B16 | 0.109 |
| B17 | 0.189 |
| B18 | 14.8 |
| B19 | 0.0815 |
| B20 | 0.0635 |

molecular target: T1, receptor-binding domain (RBD) of the …; test: BLI; conditions: both partners purified

| Binder | Kd [nM] |
| --- | --- |
| B21 | 8.87 |
| B22 | < 0.001 |
| B23 | 0.173 |
| B24 | 0.0171 |
| B25 | 0.0652 |
| B26 | 0.618 |

molecular target: T1, receptor-binding domain (RBD) of the …; test: cell-based or functional assay; conditions: not given

| Binder | other [ng/mL] |
| --- | --- |
| B24 | 83 |
| B25 | 91.7 |
